From US20260102527A1 (VRIJE UNIVERSITEIT BRUSSEL, published 2026) come the findings set out here.

Test [1] deals with T1, cynomolgus CD8β-Fc protein (Sino Biologicals) (cynomolgus).
T1 construct: Bought protein; also called cynomolgus CD8β protein
The test is described as follows: equilibrium binding ELISA, coated cynomolgus CD8β-Fc. The protocol:
(§1) Wells of a 96 well MicroWell MaxiSorp flat bottom plate (Thermo Fisher Scientific) were coated with 0.2 μg of recombinant hCD8αβ protein, 0.2 μg of cynomolgus CD8β-Fc protein (Sino Biologicals) or PBS overnight at 4° C. The next day, wells were washed 3 times with PBS-T (PBS+0.05% Tween20 (Merck-Millipore, Burlington, MA, USA). Next, wells were blocked with blocking buffer (2% Skimmed milk (Regilait) in PBS) for 1 h at room temperature (RT). Different concentrations of single domain antibodies, diluted in blocking buffer, were added to the wells and incubated for 1 h at RT. Single domain antibody binding was detected using a mouse-anti-HA antibody (1:2000, clone 16B12, Biolegend) and alkaline-phosphatase conjugated goat-anti-mouse antibody (1:200, clone A90-116AP, Bethyl Laboratories, Montgomery, TX, USA). Wells were washed 5 times with PBS-T between all incubation steps. Binding was determined using p-nitrophenyl phosphate (2 mg/ml resuspended in AP blot buffer (12.12 g/L Trizma base, 10.17 g MgCl2·6H20/L, 5.84 g/L NaCl); Thermo Fisher Scientific). Absorbance at 405 nm was measured via a VersaMax ELISA Microplate Reader, using the SoftMax® Pro software (Molecular Devices, San Jose, CA, USA).
(In general: An ELISA detects its analyte on a solid surface through an enzyme-linked reagent.)

The target in test [2] is T2, recombinant hCD8αβ protein (R&D systems) (human, UniProt P01732 22-182; P10966 22-170).
T2 construct: Bought protein; they are tied to this reagent by name only; also called human CD8 protein; human CD8β protein
T2 sequence (P01732 22-182 limits assumed, chain 1 of 2): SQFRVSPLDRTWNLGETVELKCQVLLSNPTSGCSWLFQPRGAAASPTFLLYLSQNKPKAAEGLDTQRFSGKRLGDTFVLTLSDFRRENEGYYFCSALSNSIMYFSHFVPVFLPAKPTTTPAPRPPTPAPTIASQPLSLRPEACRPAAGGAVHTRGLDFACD
T2 sequence (P10966 22-170 limits assumed, chain 2 of 2): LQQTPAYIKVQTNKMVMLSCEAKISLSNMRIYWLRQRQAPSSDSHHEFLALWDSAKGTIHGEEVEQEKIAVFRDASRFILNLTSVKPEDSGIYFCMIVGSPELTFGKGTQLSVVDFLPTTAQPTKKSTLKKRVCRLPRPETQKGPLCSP
The test is described as follows: SPR, Biacore T200, sdAb injected 250 to 1 nM, 25 °C, 1:1 fit. The protocol:
The affinity of purified anti-hCD8β single domain antibodies to recombinant hCD8αβ protein (R&D systems, Minneapolis, MN, USA) was determined using the BIACORE-T200 device (Cytiva, Freiburg, Germany). Surface plasmon resonance measurements were performed at 25° C. with HEPES buffered saline (HBS, 20 mM of HEPES pH 7.4, 150 mM of NaCl, 3.4 mM of EDTA 0.05% Tween-20) running buffer. The single domain antibodies were injected consecutively in 2-fold serial dilutions, from 250 to 1 nM. The association step was 100 s, the dissociation step was 200 s, and the two-step regeneration of 35 s at 30 μL·min-1, using 100 mM glycine at pH 3.0, was performed. Local curve fitting analysis was performed using the BIACORE evaluation software (Cytiva) by fitting the obtained sensorgrams to theoretical curves, assuming 1-1 binding geometries. For the determination of the equilibrium dissociation constant, the ratio of the association and dissociation rate constants was determined.

Test [3] concerns the target T3, human CD8 (CD8αβ) on cells: SUP-T1 T cell lymphoma cells and primary human CD8+ T cells (human, UniProt P01732 22-235; P10966 22-210).
T3 construct: whole, on cells; SUP-T1 endogenously expresses human CD8; primary T cells came from healthy donors; The sdAbs are directed to the CD8β chain; also called SUP-T1 cells; primary CD8+ T cells
As to the kind of experiment: flow cytometry on SUP-T1 cells, anti-HA detection. The protocol:
Serial dilutions of anti-hCD8β single domain antibodies were incubated with 500.000 SUP-T1 cells in FACS buffer (HBSS (Gibco, Thermo Fisher Scientific) supplemented with 1% FBS and 2 mM EDTA (Duchefa Biochemie, Haarlem, The Netherlands)) for 1 h at 4° C. Cells were washed once with FACS buffer. Next, single domain antibody binding was detected by incubation of the cells with an Alexa Fluor®-488 tagged anti-HA antibody (1:1000 in FACS buffer, clone 16B12, Biolegend, San Diego, CA, USA) for 30 min at 4° C. Again, cells were washed once with FACS buffer. Single domain antibody binding was determined using the FACS CANTO II analyser (BD Biosciences, Franklin Lakes, NJ, USA). The mean fluorescence intensity of single domain antibody binding was determined using FlowJo version 10.

The target in test [4] is T2, recombinant hCD8αβ protein (R&D systems). The test is described as follows: equilibrium binding ELISA, coated hCD8αβ protein. On the procedure:
as §1

In test [5] the target is T4, human CD8α on CD3- CD56+ NK cells (express hCD8α but not hCD8β) (human, UniProt P01732 22-235).
T4 construct: whole, on cells; also called cell-exposed CD8a
T4 sequence (P01732 22-235): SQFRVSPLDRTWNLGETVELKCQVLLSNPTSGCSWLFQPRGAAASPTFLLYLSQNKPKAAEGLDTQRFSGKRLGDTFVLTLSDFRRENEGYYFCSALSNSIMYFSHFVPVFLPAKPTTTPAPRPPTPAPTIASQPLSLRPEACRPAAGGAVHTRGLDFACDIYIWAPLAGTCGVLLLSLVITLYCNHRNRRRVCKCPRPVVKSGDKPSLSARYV
The test is described as follows: flow cytometry on primary NK cells, anti-HA detection. (In general: A flow cytometer gives signals particle by particle.)

T3 sequence (P01732 22-235, chain 1 of 2): as the sequence (P01732 22-235) above
T3 sequence (P10966 22-210, chain 2 of 2): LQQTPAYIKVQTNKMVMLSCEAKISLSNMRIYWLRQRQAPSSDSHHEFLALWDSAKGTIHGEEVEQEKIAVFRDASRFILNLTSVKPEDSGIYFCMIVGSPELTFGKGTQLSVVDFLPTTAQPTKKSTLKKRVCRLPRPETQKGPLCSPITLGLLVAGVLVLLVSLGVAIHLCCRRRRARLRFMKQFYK

B1: anti-human CD8β single domain antibody 22772 (VHH)
VHH: DVQLVESGGGLVQPGGSLRLSCRASGHTFSDLSVGWFRRAPGKAREFVATTAWNGSIRYAESVKGRFTISRDNAANMMYLQMNSLKPEDTAIYYCAAAVGISYDYWGQGTQVTVSS
notes: detected through its C-terminal HA-tag; not shown: C-terminal HA-tag and His-tag (pMECS vector)
B1: the Kd (commonly the equilibrium constant for the complex coming apart) in test [1] stood at 1.6 nM; in test [2] it was 5 nM; in test [3], 16.8 nM; in test [4], 3.5 nM.

B2: anti-human CD8β single domain antibody 22728 (VHH)
VHH: DVQLVESGGGLVQAGDSLRLSCVASGRTVSGGVMGWFRQAPGKGREFVASIKWESGRTYYVDSLKDGFTISRDSPKNTVYLQMTNLKPEDTAVYYCAAGIRVWQLSTLESTYDDWGQGTQVTVSS
notes: Llama-derived sdAb; detected through its C-terminal HA-tag in flow cytometry and ELISA; not shown: C-terminal HA-tag and His-tag (pMECS vector)
In the case of B2, the Kd in test [1] was found to be 1.7 nM; in test [2] it was 2.6 nM; in test [3], 2 nM; in test [4] it was 2.9 nM. In addition, in test [5], the binding result is recorded as “no binding (tested: 100 nM)”.

B3: anti-human CD8β single domain antibody 22719 (VHH)
VHH: DVQLVESGGGLVQAGGSLRLSCRASGHTFSDTAVGWFRRVPGKEREFVATIAGSGSIRYSESVKGRFTISGDNAKNMVYLQMNRLKPEDTGVYYCAAAVGISYDYWGQGTQVTVSS
notes: as for B2
Regarding B3, the Kd was 4.4 nM in test [1], 1 nM in test [2], 16 nM in test [3] and 3.6 nM in test [4]. Besides, the binding result in test [5] is on record as “no binding (tested: 100 nM)”.
